The source of these data is US20220105194A1, “CONJUGATE COMPRISING LIGAND, SPACER, PEPTIDE LINKER, AND BIOMOLECULE” (ASTELLAS PHARMA INC., priority 2019, published 2022).

Series [1] addresses human cancer-specific MUC1. The experiment in a line: Example 6-1: ELISA binding activity of anti-human MUC1 antibody Fab^5 fragment conjugates. The following applies: immobilized human cancer-specific MUC1 peptide, single runs of P10-2, read-out: EC50 value (nM) for each of 3 runs. (An ELISA detects its analyte on a solid surface through an enzyme-linked reagent.)
For series [2], the target named is human cancer-specific MUC1. The experiment in a line: Example 6-2: ELISA binding activity of anti-human MUC1 antibody Fab^5 fragment conjugates. The conditions noted are these: immobilized human cancer-specific MUC1 peptide, single runs of P10-2, read-out: EC50 value (nM) for each of 3 runs. As for the experimental part:
Each anti-human MUC1 antibody Fab^5 fragment conjugate prepared by the method of Example 5 was subjected to ELISA to evaluate the binding activity thereof to human cancer-specific MUC1. In the present test, 20×PBS/Tween 20 Buffer (Thermo Fisher Scientific Inc., 28352) diluted 20-fold with distilled water was used as a wash liquid. In addition, for bovine serum albumin (BSA) used in the present test, 30% Bovine Serum Albumin solution (Sigma-Aldrich, Inc., A9576-50ML) was added in an appropriate proportion for use. A human cancer-specific MUC1 peptide (PTL 1) at 0.5 μmol/L was added to a Nunc MaxiSorp White 384 plate (Nunc, 460372) at 30 μL per well, and the plate was incubated overnight at 4° C. for immobilization. The MUC1 peptide was removed by reverse centrifugation, and then blocking was carried out by adding a PBS/Tween 20 buffer containing 5.0% BSA. […] The substrate was incubated at room temperature for 15 minutes, and then a signal value thereof was measured using an Envision counter (PerkinElmer, Inc.).
The test for each antibody was carried out in duplicate, and the EC50 value was calculated using a 4-parameter logistic curve model.

Details of series [3]: species or system mice (BALB/c nu/nu). The conditions noted are these: mouse, in vivo.
Experimental: (§1) A Gd-labeled conjugate of the conjugate containing a peptide linker produced in one of the above Examples was administered from the tail vein of the tumor-bearing mice so that the protein mass was 0.02 mg (100 μL) per animal. As the tumor-bearing mice used in the present Example, mice (BALB/c nu/nu) that were in a tumor-bearing state brought about by transplanting human breast cancer cell line MDA-MB-468 (ATCC(registered trademark); HTB-132) at 5.0×10^6 cells/mouse subcutaneously on the back before administration of the sample were used. 24 hours after administration of the sample, the mice were sacrificed, the kidneys and the tumor were removed, and the amounts of Gd in the kidneys and in the tumor were measured using ICP-MS. The present test was carried out in 3 cases in each group, and the mean value of the 3 cases was calculated. The amount of Gd contained per kidney after administration was shown as a percentage of the amount of Gd administered (% of dose/tissue), and the amount of Gd contained per g of tumor tissue was shown as a percentage of the total amount of Gd administered (% of dose/g).
For series [4], the system named is human breast cancer cell line MDA-MB-468. The series is described as follows: Example 8: amount of tumor accumulation of Gd-labeled conjugates (tumor-bearing mice). The following applies: MDA-MB-468 tumor-bearing mice, 24 hours; control conjugate Ex-No. 108, mean of 2 runs.
Experimental: as §1
Details of series [5]: species or system mice (BALB/c or BALB/c nu/nu). The following applies: mouse, in vivo.
Experimental: A Gd-labeled conjugate of the conjugate containing a peptide linker produced in one of the above Examples was administered from the tail vein of mice (BALB/c or BALB/c nu/nu) so that the protein mass was 0.02 mg (100 μL) per animal. After about 24 hours, the mice were sacrificed and the kidneys were removed, and the amount of Gd in the kidneys was measured using ICP-MS. The present test was carried out in 3 cases in each group, the mean value of the 3 cases was calculated, and the amount of Gd contained per kidney after administration was shown as a percentage (% of dose/tissue) of the total amount of Gd administered.
Based on the amount of Gd contained in the kidneys of the control conjugate, the proportion of decrease in the amount of Gd contained in the kidneys of each of the conjugates having a peptide linker was determined.

Chain of human cancer-specific MUC1 (P15941 136-155 limits assumed): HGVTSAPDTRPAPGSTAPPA

B1: P10-2: anti-human MUC1 antibody Fab fragment disclosed in International Publication WO2018/092885 (antibody)
heavy: QVQLVQSGAEVKKPGASVKVSCKASGYTFTNYGLSWVRQAPGQGLEWMGENHPGSGIIYHNEKFRGRVTLTADRSTSTAYMELSSLRSEDTAVYYCARSSGTRGFDYWGQGTLVTVSSASTKGPSVFPLAPSSKSTSGGTAALGCLVKDYFPEPVTVSWNSGALTSGVHTFPAVLQSSGLYSLSSVVTVPSSSLGTQTYICNVNHKPSNTKVDKKVEPKSCD
light: DVVMTQTPLSLSVTPGQPASISCRSSQSIVHSNGNTYLEWYLQKPGQSPQLLIYRVSNRFSGVPDRFSGSGSGTDFTLKISRVEAEDVGVYYCFQGSHGPWTFGQGTKLEIKRTVAAPSVFIFPPSDEQLKSGTASVVCLLNNFYPREAKVQWKVDNALQSGNSQESVTEQDSKDSTYSLSSTLTLSKADYEKHKVYACEVTHQGLSSPVTKSFNRGEC
As a reminder, the EC50 is the concentration that produces a half-maximal response. On to B1, for which the EC50 in series [1] and in series [2] was 0.06 nM throughout.

B2: Ex-No 108 (conjugate)
heavy: QVQLVQSGAEVKKPGASVKVSCKASGYTFTNYGLSWVRQAPGQGLEWMGENHPGSGIIYHNEKFRGRVTLTADRSTSTAYMELSSLRSEDTAVYYCARSSGTRGFDYWGQGTLVTVSSASTKGPSVFPLAPSSKSTSGGTAALGCLVKDYFPEPVTVSWNSGALTSGVHTFPAVLQSSGLYSLSSVVTVPSSSLGTQTYICNVNHKPSNTKVDKKVEPKSCD
light: DVVMTQTPLSLSVTPGQPASISCRSSQSIVHSNGNTYLEWYLQKPGQSPQLLIYRVSNRFSGVPDRFSGSGSGTDFTLKISRVEAEDVGVYYCFQGSHGPWTFGQGTKLEIKRTVAAPSVFIFPPSDEQLKSGTASVVCLLNNFYPREAKVQWKVDNALQSGNSQESVTEQDSKDSTYSLSSTLTLSKADYEKHKVYACEVTHQGLSSPVTKSFNRGEC
Turning to B2, the “Renal residual amount (% of dose/tissue), Mean” value in series [3] is listed as 34.67 % of dose/tissue. Moreover, the “Amount of tumor accumulation (% of dose/g), Mean” value in series [4] is on record as 0.92 % of dose/g. In addition, the “Renal residual amount (normal mice), Mean (% of dose/tissue)” value in series [5] is listed as 33.00 % of dose/tissue.
